Reference: PMC3753260, “High Yield Production of a Soluble Human Interleukin-3 Variant from E. coli with Wild-Type Bioactivity and Improved Radiolabeling Properties” (PLoS ONE, 2013)

Columns and labels:
human IL-3Rα subunit = target: T1, human IL-3Rα subunit (human, UniProt P26951 19-378); assay: radioligand binding; ^125I-labelled hIL-3(13-125; W13Y) on COS cells transiently expressing IL-3 receptors; Scatchard analysis with EBDA-LIGAND software; details: one partner purified
T1 construct: human interleukin-3 receptor α subunit, transiently expressed on COS cells; also called hIL-3Rα; IL-3-specific α-subunit; source: COS cells, transfected by electroporation (pSG5: IL-3Rα), on cells
T1 sequence (P26951 19-378): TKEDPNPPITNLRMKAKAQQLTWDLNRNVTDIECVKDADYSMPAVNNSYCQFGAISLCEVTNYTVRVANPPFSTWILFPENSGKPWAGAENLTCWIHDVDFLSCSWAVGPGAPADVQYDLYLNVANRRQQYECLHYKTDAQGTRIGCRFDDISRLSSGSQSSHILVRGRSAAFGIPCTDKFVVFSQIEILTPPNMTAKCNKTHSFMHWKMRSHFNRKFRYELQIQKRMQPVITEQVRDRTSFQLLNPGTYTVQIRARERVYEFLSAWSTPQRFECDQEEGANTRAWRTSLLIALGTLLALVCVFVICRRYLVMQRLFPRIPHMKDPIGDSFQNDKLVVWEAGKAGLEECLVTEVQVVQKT

[1] = target: T2, hIL-3Rα and hβc subunits co-expressed (hIL-3 receptor) (human, UniProt P26951 19-378; P32927 17-897); assay: as above; details: one partner purified
T2 construct: human interleukin-3 receptor α subunit, transiently co-expressed with βc on COS cells; human common β-subunit (βc) shared with the IL-5 and GM-CSF receptors, transiently co-expressed with IL-3Rα on COS cells; The two subunits were co-expressed on the same cells; also called IL-3Rα and βc; hIL-3 receptors; source: COS cells, transfected by electroporation (pSG5: IL-3Rα and pSG5: βc), on cells
T2 sequence (P26951 19-378, chain 1 of 2): as the sequence (P26951 19-378) above
T2 sequence (P32927 17-897, chain 2 of 2): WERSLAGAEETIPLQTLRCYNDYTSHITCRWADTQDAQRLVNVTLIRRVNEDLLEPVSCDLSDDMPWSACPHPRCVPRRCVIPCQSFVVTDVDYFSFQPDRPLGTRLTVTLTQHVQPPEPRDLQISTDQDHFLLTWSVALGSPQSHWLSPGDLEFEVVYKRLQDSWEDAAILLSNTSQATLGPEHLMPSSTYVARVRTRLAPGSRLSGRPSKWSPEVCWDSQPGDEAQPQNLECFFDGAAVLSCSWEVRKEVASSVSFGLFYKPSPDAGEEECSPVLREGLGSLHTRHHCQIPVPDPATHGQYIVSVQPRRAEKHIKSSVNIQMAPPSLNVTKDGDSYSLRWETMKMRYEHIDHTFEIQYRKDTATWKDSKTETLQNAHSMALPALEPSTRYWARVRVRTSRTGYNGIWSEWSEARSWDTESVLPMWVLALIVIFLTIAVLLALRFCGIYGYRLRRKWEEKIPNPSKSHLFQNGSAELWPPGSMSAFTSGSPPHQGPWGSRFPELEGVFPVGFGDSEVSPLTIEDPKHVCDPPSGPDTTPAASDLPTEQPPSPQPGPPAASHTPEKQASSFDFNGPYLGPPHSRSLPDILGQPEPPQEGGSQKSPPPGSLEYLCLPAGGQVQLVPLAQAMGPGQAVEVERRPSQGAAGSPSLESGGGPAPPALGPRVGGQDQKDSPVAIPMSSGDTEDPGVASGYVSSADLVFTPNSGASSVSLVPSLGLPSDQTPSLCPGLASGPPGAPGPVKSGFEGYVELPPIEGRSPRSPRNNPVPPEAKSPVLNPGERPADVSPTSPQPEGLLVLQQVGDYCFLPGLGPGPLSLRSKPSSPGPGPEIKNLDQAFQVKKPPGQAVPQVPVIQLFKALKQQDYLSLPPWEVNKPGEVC

Kd (human IL-3Rα subunit): 143 nM | Kd [1]: 0.456 nM
B1: ^125I-hIL-3(13-125; W13Y) (ligand, human)
chain: GAMGSYVNCSNMIDEIITHLKQPPLPLLDFNNLNGEDQDILMENNLRRPNLEAFNRAVKSLQNASAIESILKNLLPCLPLATAAPTRHPIHIKDGDWNEFRRKLTFYLKTLENAQAQQ
modifications: ^125I radio-iodinated (tyrosine labelling, Pierce Pre-Coated Iodination tubes / Iodogen)
notes: non-native N-terminal overhang left after TEV protease cleavage of the NusA-His6 tag (cloning artifact); human interleukin-3, four-helix bundle core, residues 13-125 with W13Y; numbers count on: the mature protein; Vector pETNusH HTb; also called hIL-3(W13Y); hIL-3 analog; source: E. coli BL21 CodonPlus (DE3)-RIPL, purified (Ni-NTA, TEV cleavage, SEC, in some cases RP-HPLC), then radio-iodinated; …
